This is an account of results in PMC11316058.

In the assay the target is Hsp90α (N-terminally His-tagged, human) (human) (UniProt P07900). Kind of assay: ITC; Ahsa1 or Ahsa1^Δ20 (200-300 µM) in the syringe injected into Hsp90-α (30 µM) in the cell; 25 °C; 30 mM Tris pH 7.5, 20 mM KCl, 10% glycerol, 1 mM TCEP; two-site-binding model; three independent experiments.

For orientation: Kd means the concentration at which binding is half-saturated. Regarding “Ahsa1^Δ20 (C-terminal 6xHis) (from UniProt O95433 21-338) (domain or fragment)”, the Kd came out at 3200 nM. This lies in the single-digit micromolar range. To “full-length Ahsa1 (C-terminal 6xHis) (from UniProt O95433 1-338) (natural protein)” belongs 1730 nM.
